Assay: soluble on expression in E. coli; label from the status in PepcDB or PDB records

| Sequence | soluble on expression in E. coli |
| --- | --- |
| MGHHHHHHSHMADDIDIEAMLEAPYKKDENKLSSANGHEERSKKRKKSKSRSRSHERKRSKSKERKRSRDRERKKSKSRERKRSRSKERRRSRSRSRDRRFRGRYRSPYSGPKFNSAIRGKIGLPHSIKLSRRRSRSKSPFRKDKSPVREPIDNLTPEERDARTVFCMQLAARIRPRDLEEFFSTVGKVRDVRMISDRNSRRSKGIAYVEFVDVSSVPLAIGLTGQRVLGVPIIVQASQAEKNRAAAMANNLQKGSAGPMRLYVGSLHFNITEDMLRGIFEPFGRIESIQLMMDSETGRSKGYGFITFSDSECAKKALEQLNGFELAGRPMKVGHVTERTDASSASSFLDSDELERTGIDLGTTGRLQLMARLAEGTGLQIPPAAQQALQMSGSLAFGAVAEFSFVIDLQTRLSQQTEASALAAAASVQPLATQCFQLSNMFNPQTEEEVGWDTEIKDDVIEECNKHGGVIHIYVDKNSAQGNVYVKCPSIAAAIAAVNALHGRWFAGKMITAAYVPLPTYHNLFPDSMTATQLLVPSRR | soluble |
| MGSDKIHHHHHHMVKLLLICLATIVMISCGSEQEKLTVYIPDTCTDTLQYEIYLPEEEGLNIFYDLCVTDSFCAFLDTRNDTLLKIFTATIPPALVGLGMKGEGPDDFLFPFFEKSIGREGKGKLSFIELNSWNKKIVAIHSAASPAPVAVSVVEAQQLPEMPVVRDYNETDSCVYGIDVDMQHGLFFIYDKHTARVKTVDYHRDIRSGYPEGHLSYLYESCLMVNQDAKAACMGLLNLNSLCFYDLKGNLMKEIVIGKELKSPEYDPEFLDFPNAPKYFISLCGTPNYLYALYNGFPGTSGKSKIMVFTWQGAPVAIYQTDVKLERIAVAPSGRYVLGLNITEEGGSDVLKFEL | not soluble |
| MKVGIIMGSVRAKRVCPEIAAYVKRTIENSEELIDQKLKIQVVDLQQIALPLYEDDDELIPAQIKSVDEYADSKTRSWSRIVNALDIIVFVTPQYNWGYPAALKNAIDRLYHEWHGKPALVVSYGGHGGSKCNDQLQEVLHGLKMNVIGGVAVKIPVGTIPLPEDIVPQLSVHNEEILQLLASCIETTRNK | soluble |
| MIEGIIEEIRTNGSFLITTHENPDGDAVGSSLALAGYLRRLGKDVTIHFCDPVPDLYAFLPLAEEVTRTVPDRDYDICFVLDVGEFRRAGKQIAECKRIKKFINIDHHLTSDNFGFINYIDPKAAATGILVHRIITGAGDVVGYETALCLYTAIITDTGSFRYSNANPEAFAIAGELVSTGINTWSIAEKLYESQPRERLELLALALSTLTISPRGEYASITVTLDMYNKTGASAELTDGFVNYPRSIRGVEVSVFFREINPGLFKVGFRSKGKIDVSRIAAAFGGGGHHNAAGATMNGSLEGIKATLFSHLESTLLEHHHHHH | not soluble |
| MSMPATSTKTTKLATSLIDEYALLGWRAMLTEVNLSPKPGLVDRINCGAHKDMALEDFHRSALAIQGWLPRFIEFGACSAEMAPEAVLHGLRPIGMACEGDMFRATAGVNTHKGSIFSLGLLCAAIGRLLQLNQPVTPTTVCSTAASFCRGLTDRELRTNNSQLTAGQRLYQQLGLTGARGEAEAGYPLVINHALPHYLTLLDQGLDPELALLDTLLLLMAINGDTNVASRGGEGGLRWLQREAQTLLQKGGIRTPADLDYLRQFDRECIERNLSPGGSADLLILTWFLAQI | not soluble |
| MAPTTVIADNNCNEESSNSFEMEIEAESAILEQIQNKMAKNLESAAYVPPTEEEQKAIDAKSVFIGNVDFNSTIEEVEEHFKGCGHIVRTTIPKDKFTKKQKNFAYIEFDDSSSIENALVMNGSLFRSRPIVVTAKRTNIPGMGHGVRGSSRGTFGRGRGAARGAPGRQQTVVVKYVYVNGPNRGGRGGRGRRFNPY | soluble |
| MSLKQINIQKFITAKRIAKYSSLESYKLNILESQKYYSSLSILEVSLRNAIDFYFTERYGESWTDLLDIFKYKEISKIEEAKNFLKLKQEECTKDKIVAELNFGFCTSLFSKTYEEQMRKNNLIKIFNNLPKNKQINRAYLSRKLNNIRNFRNRIFHYEKIINKPEYLNIENDINEILEFLDKEILGFSIGLNIEGHHHHHH | soluble |
| MFLRLFKYLWPERYLPEIPAQDPFDENPPPCGPGRVGVLLVNLGTPDEPTRGAIRRYLGEFLSDPRVIEIPRYLWMPILHGLVLAMRPKKLAPRYAGIWMEEGSPLLVYSQRQAAGVRQGLAARGVHAEVELAMRYGKPSIPAAITALRERGCDHILAVPLYPQYAASTTATVVDAVTRHAGRLRDQPALRFVKRFHNDPAYVEAQAGRIAEFWQAHGRPQKLVMSFHGLPRYSIELGDPYYRDCLDTARLLRERLGLREDEVEVTFQSRFGSARWLEPYTEPTLAELARQGVTEVDVVCPGFVADCLETLEEISQECRDAFVAAGGRQFRYIPALNDCPPWIEGLTDLVERQLRGWPTGNP | not soluble |
| IIGGHEAKPHSRPYMAYLQIMDEYSGSKKCGGFLIREDFVLTAAHCSGSKIQVTLGAHNIKEQEKMQQIIPVVKIIPHPAYNSKTISNDIMLLKLKSKAKRSSAVKPLNLPRRNVKVKPGDVCYVAGWGKLGPMGKYSDTLQEVELTVQEDQKCESYLKNYFDKANEICAGDPKIKRASFRGDSGGPLVCKKVAAGIVSYGQNDGSTPRAFTKVSTFLSWIKKTMKKS | soluble |
| MGSDKIHHHHHHMTTYSPSQENYRELAHLLARFTSLTQIKTIFYDFTGILLKDDFVYINHSAIEDNLAQLTFSDYAVFPVSRNIQMWGAILCESVNVSKKRLFLSRSYLENLMTQIFDEDTLGKVSVWEPLTSDQVGQINNLHALFHPTGDTDPLQAVLAPNAVIAGHTIDNDEAFRSISLAIDYIQKNIQRPISLNEVAQRAYLSPSYLSRLFKKYLHVNFIEYVNNQKIALAQEKLSLTLTPINQISNQIGFTQTSYFTKIFKKKTGITPSEFRQRNHTIQKIYTIPRELNWDTNDSVIDVTKNYFKSHHITYHTDSEEGATYVNSIGELNDAKGNRGWIYTVDGQQPTQSADEIATHDKSVIQWVYTDYSN | not soluble |
| MNLRPVIVGGGSAGMAAAIELARRGVPCVLFDEASRPGGVVYRGPLRAGVDPAYLGARYTRMLEKLRRDFSACAGHIDLRLNSRVVGGDGQRLMVLDEAERLHEVEYSHLLLATGCHERSVPFPGWTLPGVMLLGGLQLQIKSGVVKPLGDTLIAGSGPLLPLVACQLHAAGVRVAGVYEACAFGRMARESLALLNKPQLFLDGLSMLGYLKLNGIPLHYGWGVVEASGDGELTEVTVAPYDEEWRPDLENARPVKASTLAVGYGFIPRTQLSQQLGLEHGFSDDGYLRAECNVWQQSSQPHIHLAGDMAGIRGGEAAMIGGRIAALSILLQREAIAPAEAIERRESHLARLEAIKRFRAGVERYTQRGARQVELARADTVICRCEQVTRGDIERALEQGVQDIAGLKMRTRAGMGDCQGRMCIGYCSDRLRRATGRHDVGWLRPRFPIDPIPFSAFQNLGTEALEHHHHHH | not soluble |
| MSDKVQTMASAIYRELETMIKVHGEDGVKTLMPLVVNVLEALDLAYLERDEQTAELEMLKEDNEQLQTQYEREKALRKQTEQKYIEIEDTLIGQNKELDKKIESLESIMRMLELKAKNATDHASRLEEREVEQKLEFDRLHERYNTLLRTHVDHMERTKYLMGSEKFELMQNMPLPNMQLRNKMGMAASVDASSIRGVSDLISAHMTQSTTMDVNLANHITNEDWQDEFSSDIEPSPRDIPQSSADALTSPITTKEPTPKREAASPKQSEEEEADETTSVDPKENNDLLGADLTGNLVDPAEFASAVNDTFIGMGREVENLIKENSELLDMKNALNIVKNDLINQVDELNSENMILRDENLSRQMVSEKMQEQITKHEEEIKTLKQKLMEKENEQEEDDVPMAMRKRFTRSEMQRVLMDRNAYKEKLMELEESIKWTEMQRAKKMQQQQQNVNQKKSGGIWEFFSSLLGDSVTPPASSRGNRASSSRGKMTRSVEYIDPDMISERRAAERREQYKLVREHVKKEDGRIEAYGWSLPNVEAEVSSVPIPVCCRPLLDNEPSLKIWCATGVVLRGGRDERGQWIVGDPIYFAPASMKKTKTSNHRPELEDEIKRARNLDARESELDEWQSSSLVWVVSSNQGKSLIAVLDANNPNNIIETFPACDSHLLCIQAVSGVMEGEPEMNEEQSKKYLSGGGKIKDLPEGLDGTDLGACEWVELRKMEDSEDGVPTYCSNDMKPSPKRTRDFSISEVAPVDSSAPVKEDPLPPPANRPGGRAALPPHIRDAMSKYDGVSGQMSGALPTVWMGGQNQYIYIHSAVTAWKQCLRRIKMPDAVLSIVHYKSRIFAALANGTIAIFHRNKHGEWSDEGYHSLRVGSATSSVRSLCLVSTNIWATYKNCVVVLDAESLQIVKVFAAHPRKDSQVRNMQWVGAGVWLSIRLDSTLRLYHAHTYEHLQDVDIEPYVTKMLGTSKLDFSYMRTTALLVSNRRLWIGTGTGVIISVPFSGQLEKKIETKDSKRPAGPGGLVRVYGATSENATNDEKTNDDFIPYCNLAHAQLSFHGHKDSVKFFLGVPGASKNGEDESAEVTLRRMLIMSGGDGYIDFRIGEENEPELTGQSIRPRDMSHLIIWEVDAELPILSK | not soluble |
| KLSNGMNGSEAAVHEVPEYTGPLGTSGEEPAPTVEKPEYTGPLGTSGEEPAPTVEKPEYTGPLGTAGEEAAPTVEKPEFTGGVNGTEPAVHEIAEYKGSDSLVTLTTKEDYTYKAPLAQQALPETGNKESDLLASLGLTAFFLGLFTLGKKREQ | not soluble |
| MIIRETERLILREWKESDRDLFREINADEKVMEFFPFRRSHAEADAVLETINGMIRGSGYGFYAMELRETGEVMGFCGISPVMNLDPPFPIGTMEIGWRLATRFWGHGYVTEAAQSLLVMAFDEKETPEIVSFAVHDNHRSTAVMERIGLRRDPSRDFDHPRVPEETHPHLRPHVTYALTLEEWRAR | not soluble |
| MGSDKIHHHHHHMLYPVKLLKDLVQIKTANPPGSEYESISFYLKDLFNDLGFQIQLIEIPEEYMDKYYIYSPSHKGNKRIIVIAKNSPNPILHFNFHYDVVPPGDGWLTNPFELKVVDNKAYGRGTSDMKGSIVSLYLALSRFNDLPIEIVFVPDEESGGIGTKYLTEEIRIAPSTAIFGEPSFPNVYIGHLGIVRGIIKIFGKQAHASNPKDGINAFLLASKLALKLQEKLGNEIVNLGGYTLNPTNNDGIVPGFFAFSYYRAIPPHDNRTPEFDKNVIDTTAREVGIEYNFEIKSFISGSVSNPDSSVAKAFKFCITSTLNVVPKELISNIRYDAVFYKNLDSINFGPGSLDQAHVPNEYVELDNIEKTIVIYECVMKRIYFNNYR | not soluble |
| MTFYYQRLAQQIAHKIYQQQLLPQQKLSSLRDFATQHQVSISTAKSCYEWLEAQGLIYVKPKSGYFVKPKSNVSRLPVSPEFESMPRQVSNLMLQNQIQEASIQNHLIPFGAIQLSPELVPIDGLRRSIQRALKYCKPEDFLYCEKQGHLRLRQALSEHWREDGIYVAPNDIFITNGCMPALSLLIQQLSREGDSILIPTPTFNGQLQLLAGLNRHIIEIPADHTGIDLLRLEQAMQMHQPKLCLLTANYQNPLGYCLADEDKQKIAQLAARYQCIILEDDIYAECSHHGQRPRPIKYWDEAGYVIWVSSVSKSLSSAYRVGWFCIGSQLEPMRPRFLSHNMTVNTPLQLALADFIFSRGYRRHLNQLHPRLMQQVEAYRDVILNAFAPLTIGLSQPQGGYALWLELPDNINSVTLYEVAQQQGISIVPGTVFGEDQRYGHFIRLSVGHALQNEHHAAIIFLADWVKQHC | not soluble |
| MSLYLMPKQDEIALLKQEEETVKATLRIKANKVAVLPQIQAQLDELKERYDFLLRQLPVQKELASMLASVNQLGLDSSLTFTRIDWGERESQEFLYRLPLNIELTGSYHDIGDFSQAIAKLPRIINFDDVDWQRVSQESSTLHFRVRAYTYQFKQEVDDEKEGHHHHHH | not soluble |

— the DeepSol protein solubility set
